Assay results: PMC10164616

Biological target: monomeric receptor binding domain from SARS-CoV-2 Spike protein, RBD (319-541)-His6 (SARS-CoV-2) (UniProt P0DTC2)
Experiment: SEC

## monomeric receptor binding domain from SARS-CoV-2 Spike protein, RBD (319-541)-His6 (from UniProt P0DTC2 319-541) (domain or fragment)
  percent dimer (GF-HPLC, first week at 37 °C): 14%
  stoichiometry N: 2
